Test results: the supplement of paper PMC10126150
± gives the standard deviation of the averaged measurements.

Tested on: ATP
Assay: switch fluorescence ratio, 500 uM ATP over buffer (Cy3 cluster intensity, sum of 5 cycles each) (fold (ratio)); higher = stronger signal-on switching upon ATP binding; sequences stand for … in TCGTCGGCAGCGTCAGATGTGTATAAGAGACAGTTTTTTTTTTTTTTTTTTTTTTTTT…TC
Details: aptamer strand: ATP DNA aptamer (quencher-CACCTGGGGGAGTATTGCGGAGGAAGG + anchor), 100 nM annealed; ATP concentration: 500 uM
In short: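 Cy3-labelled switching-strand clusters on a modified Illumina MiSeq flow-cell were annealed to 100 nM quencher-labelled ATP aptamer, imaged in selection buffer, then imaged after 15 min with 500 uM ATP at 22 °C. Five buffer/ATP cycles ran, with NaOH stripping and re-annealing between them. The fluorescence ratio is summed target-cycle over summed buffer-cycle Cy3 intensity per cluster, averaged per switch-domain sequence. Clusters outside 100-1000 RFU were excluded.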
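Further: ATP exposure 15 min at 22 °C before imaging.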

Sequence	switch fluorescence ratio
TGGATTATTA	1.02 ± 0.014
CCGTTATTAG	1.3518 ± 0.0007
TTTTTGCGAT	0.9982 ± 0.0046
TTCAACGGGG	0.9948 ± 0.0039
AAGAGGAAGG	0.9709 ± 0.0027
TGCGAAATTT	0.965 ± 0.013
CGCTGCTCGA	1.06 ± 0.013
AGGGAAACTA	0.999 ± 0.013
ATCTACCATG	1.03 ± 0.04
TTGATAGAAA	1.01 ± 0.038
ACGGGGAGTC	1.039 ± 0.0052
CGGGGCCGGG	0.996 ± 0.017
TGTGGCGGGA	1.06 ± 0.13
CGGGGATGTT	0.999 ± 0.035
ATGATTGCGA	1.01 ± 0.061
GACTTCGAAA	1.63 ± 0.028
CGGGTTTGGG	0.983 ± 0.016
TGGGTGTATA	1.01 ± 0.017
TTGGAGAGGG	1.06 ± 0.058
CCACAGAGGG	1.21 ± 0.17
ACTTTTTTTT	1.01 ± 0.034
ATTGGGGTGG	0.935 ± 0.12
TGGTAGACGG	1.15 ± 0.26

Sequence	switch fluorescence ratio
TGAGGAAATG	1 ± 0.037
TTAGGGAGCG	0.996 ± 0.035
GTTTGGGTTG	0.989 ± 0.019
AATTTGTTCT	0.999 ± 0.025
CCTGCTGTTC	1.51 ± 0.09
CGGGTAATGG	1.03 ± 0.07
TAATGCGATT	1.04 ± 0.017
GTTAAGGGGA	0.999 ± 0.021
TTCGGAGGAG	1 ± 0.012
CGGGTCTGTG	0.999 ± 0.018
TCATGGAAGG	1.01 ± 0.026
TGGTGGTGCA	1.04 ± 0.039
CAGGTCACTG	0.965 ± 0.044
CAATGTAGGG	1.004 ± 0.0077
TCCGGTATCG	1.04 ± 0.016
ATTAAAGGGT	1.005 ± 0.0084
GGTATAAGGA	0.996 ± 0.016
TAGACGGGGG	1 ± 0.04
AGGTTTGTGG	0.976 ± 0.023
GCGACAGGAC	1.48 ± 0.12
GAAGATTATA	0.9865 ± 0.0044
ATGTAGGGTC	1.02 ± 0.02
GATCAATTAA	0.9942 ± 0.007

Sequence	switch fluorescence ratio
GGGCTTCTTG	0.962 ± 0.021
ACGCAGGACA	1.35 ± 0.031
TCGGAGGAGC	1.05 ± 0.026
CTGGGAGGAT	0.98788 ± 0.0003
TATGCGTTGG	1.007 ± 0.0024
GCCTTCTGGA	1.05 ± 0.036
TTTGGTTATG	0.982 ± 0.017
ATTCTTACCG	1.09 ± 0.044
TTTTTTGCGC	1.19 ± 0.29
TGTTGGTATA	1.01 ± 0.012
CGAAGTGGCC	1.02 ± 0.016
TTAATTGTTC	1.06 ± 0.068
GTGGGGTATG	0.977 ± 0.032
GGTTATCGAG	0.975 ± 0.037
CAATATGTTT	0.991 ± 0.051
GGTCATAGAC	0.991 ± 0.026
TTTTTGAACT	1.01 ± 0.037
CATCAGGCAC	1.2 ± 0.023
TGGTATAGGG	1.01 ± 0.024
CGGGTGAGGT	1 ± 0.027
GACGATTGCG	1.01 ± 0.032
AATTTCACGG	1.03 ± 0.066
GAACAAGGAG	1.03 ± 0.077

Sequence	switch fluorescence ratio
ATGTCAGAGG	0.977 ± 0.041
GTTGGGTATC	0.998 ± 0.023
TGGTAACAGG	1.01 ± 0.021
AGGCCTCGCA	1.03 ± 0.039
GAAGAAGTAA	1.03 ± 0.013
TTGTTTTGAA	1.006 ± 0.0053
TGGATCACGG	1.02 ± 0.0054
CCATATCCAA	1.06 ± 0.055
TTGCTATGGG	0.978 ± 0.017
ACATACAATT	1.23 ± 0.091
GGCTGTAGAC	1.006 ± 0.0059
TGGTTTTTTG	0.996 ± 0.017
GTAAATTATG	0.986 ± 0.018
CAGTTACGAC	1.13 ± 0.055
ATCACTCACT	1.18 ± 0.06
AGCGGCATGT	0.978 ± 0.077
AAAGTGGGGT	1 ± 0.018
TGCCGAAGGT	1.03 ± 0.024
GTGGAAATAG	1.01 ± 0.05
TGGGTAACAT	0.99 ± 0.031
TTTAGCGACG	1.069 ± 0.0098
TAAGGTATTT	1.01 ± 0.023
TTTAGAAGGC	1.08 ± 0.11

Sequence	switch fluorescence ratio
GCAGCCGGGT	0.991 ± 0.022
GGGCTATCAT	0.965 ± 0.012
TGTGTGTTTG	0.989 ± 0.015
GAGTTTATTA	0.994 ± 0.021
GCGGAAGGG	0.996 ± 0.0087
GGGAGACAGA	0.957 ± 0.074
TTGAACGTTT	0.974 ± 0.019
CAGTTTTCCC	1.01 ± 0.016
AAGTTGGGCC	0.955 ± 0.044
ATCGGCGGGA	0.986 ± 0.01
CAAGTTCAAA	1.013 ± 0.0055
GTAGTATGCA	1.01 ± 0.02
TTCGTAGGCA	1.02 ± 0.042
TTAAAACTAT	1.015 ± 0.0089
AAGGGTTAGG	1.03 ± 0.023
TGAAGCATTT	1.17 ± 0.14
AGGGGGCTTT	0.985 ± 0.021
ATCGAAATGG	1 ± 0.024
AAAGAGTAGT	0.962 ± 0.014
GATCGCTAGG	0.984 ± 0.035
CTGTAATATT	1.13 ± 0.029
TTCCTTTGGG	0.964 ± 0.019
GGTGTGCAAG	0.947 ± 0.04

Sequence	switch fluorescence ratio
CAGGTGGGGC	1.02 ± 0.035
ACGACATTTT	1.084 ± 0.0048
TTTCTATGGT	1.003 ± 0.0073
TTAAAGATTG	0.987 ± 0.014
TTACTTTGTT	1.02 ± 0.023
CGTGTGGCTG	0.992 ± 0.034
GCCGGAGTGG	0.982 ± 0.024
TGGGGAGCCT	1.03 ± 0.041
GGGTGCTTGG	1.0239 ± 0.00098
AGGGATGTTA	0.991 ± 0.014
GCTGGCTTGC	0.988 ± 0.021
CTCAAAAGTT	1.01 ± 0.026
TAAGGTTATG	0.973 ± 0.017
CCGAACTGAT	1.13 ± 0.027
CGTCCATATG	1.016 ± 0.0089
ACTGTGGGCA	1.01 ± 0.02
CGGTGCTATG	1 ± 0.015
GTCGTATGAT	0.9993 ± 0.0091
AAAAATGGTG	0.981 ± 0.033
TAGGATTACT	1.02 ± 0.014
GTGACGGGGG	1.02 ± 0.029
CCAACTTTTC	1.0433 ± 0.00094
ATTTTGGTAT	1.01 ± 0.027

Sequence	switch fluorescence ratio
ACTGTATACG	1.08 ± 0.026
AAAAATAAGC	1.03 ± 0.072
CGCGTACATT	1.05 ± 0.077
GAGTCAGAAT	1.01 ± 0.013
TACAGCTGGG	1.01 ± 0.016
ATGTCCGGG	0.968 ± 0.045
ATTTAACTTA	1.008 ± 0.0016
TTGGGGGTAG	1.04 ± 0.13
GGAAGGAGTC	0.991 ± 0.019
CGGAGCGGCG	1.042 ± 0.0095
TGCTGTTAAT	0.9829 ± 0.0089
AGCGAATTTT	0.999 ± 0.017
ACGTGGGGGG	1.04 ± 0.082
TTTGCGGGGT	1.03 ± 0.034
TAGGGTCGT	0.9932 ± 0.0024
AGTAATGAGG	0.985 ± 0.035
TGCGGGAGTA	1.003 ± 0.0014
AGAGCATACT	2.12 ± 0.22
TACAGAACGC	1.24 ± 0.24
